US10660972B2, “Methods for coupling targeting peptides onto recombinant lysosomal enzymes for improved treatments of lysosomal storage diseases” (AMICUS THERAPEUTICS, INC., priority 2011, dated 2020)
Values joined by “and” are separate entries in the source; they are usually repeats but may differ in a detail not shown here. Equal entries are not always repeated.

Key:
IGF-2/CI-MPR = IGF-2/CI-MPR (Homo sapiens, UniProt P11717); conditions: cited from earlier work; for Kd: ligand affinity for IGF-2/CI-MPR, read-out: Binding Affinity (Apparent Kd; nM)
Sequence of IGF-2/CI-MPR (P11717 41-2491): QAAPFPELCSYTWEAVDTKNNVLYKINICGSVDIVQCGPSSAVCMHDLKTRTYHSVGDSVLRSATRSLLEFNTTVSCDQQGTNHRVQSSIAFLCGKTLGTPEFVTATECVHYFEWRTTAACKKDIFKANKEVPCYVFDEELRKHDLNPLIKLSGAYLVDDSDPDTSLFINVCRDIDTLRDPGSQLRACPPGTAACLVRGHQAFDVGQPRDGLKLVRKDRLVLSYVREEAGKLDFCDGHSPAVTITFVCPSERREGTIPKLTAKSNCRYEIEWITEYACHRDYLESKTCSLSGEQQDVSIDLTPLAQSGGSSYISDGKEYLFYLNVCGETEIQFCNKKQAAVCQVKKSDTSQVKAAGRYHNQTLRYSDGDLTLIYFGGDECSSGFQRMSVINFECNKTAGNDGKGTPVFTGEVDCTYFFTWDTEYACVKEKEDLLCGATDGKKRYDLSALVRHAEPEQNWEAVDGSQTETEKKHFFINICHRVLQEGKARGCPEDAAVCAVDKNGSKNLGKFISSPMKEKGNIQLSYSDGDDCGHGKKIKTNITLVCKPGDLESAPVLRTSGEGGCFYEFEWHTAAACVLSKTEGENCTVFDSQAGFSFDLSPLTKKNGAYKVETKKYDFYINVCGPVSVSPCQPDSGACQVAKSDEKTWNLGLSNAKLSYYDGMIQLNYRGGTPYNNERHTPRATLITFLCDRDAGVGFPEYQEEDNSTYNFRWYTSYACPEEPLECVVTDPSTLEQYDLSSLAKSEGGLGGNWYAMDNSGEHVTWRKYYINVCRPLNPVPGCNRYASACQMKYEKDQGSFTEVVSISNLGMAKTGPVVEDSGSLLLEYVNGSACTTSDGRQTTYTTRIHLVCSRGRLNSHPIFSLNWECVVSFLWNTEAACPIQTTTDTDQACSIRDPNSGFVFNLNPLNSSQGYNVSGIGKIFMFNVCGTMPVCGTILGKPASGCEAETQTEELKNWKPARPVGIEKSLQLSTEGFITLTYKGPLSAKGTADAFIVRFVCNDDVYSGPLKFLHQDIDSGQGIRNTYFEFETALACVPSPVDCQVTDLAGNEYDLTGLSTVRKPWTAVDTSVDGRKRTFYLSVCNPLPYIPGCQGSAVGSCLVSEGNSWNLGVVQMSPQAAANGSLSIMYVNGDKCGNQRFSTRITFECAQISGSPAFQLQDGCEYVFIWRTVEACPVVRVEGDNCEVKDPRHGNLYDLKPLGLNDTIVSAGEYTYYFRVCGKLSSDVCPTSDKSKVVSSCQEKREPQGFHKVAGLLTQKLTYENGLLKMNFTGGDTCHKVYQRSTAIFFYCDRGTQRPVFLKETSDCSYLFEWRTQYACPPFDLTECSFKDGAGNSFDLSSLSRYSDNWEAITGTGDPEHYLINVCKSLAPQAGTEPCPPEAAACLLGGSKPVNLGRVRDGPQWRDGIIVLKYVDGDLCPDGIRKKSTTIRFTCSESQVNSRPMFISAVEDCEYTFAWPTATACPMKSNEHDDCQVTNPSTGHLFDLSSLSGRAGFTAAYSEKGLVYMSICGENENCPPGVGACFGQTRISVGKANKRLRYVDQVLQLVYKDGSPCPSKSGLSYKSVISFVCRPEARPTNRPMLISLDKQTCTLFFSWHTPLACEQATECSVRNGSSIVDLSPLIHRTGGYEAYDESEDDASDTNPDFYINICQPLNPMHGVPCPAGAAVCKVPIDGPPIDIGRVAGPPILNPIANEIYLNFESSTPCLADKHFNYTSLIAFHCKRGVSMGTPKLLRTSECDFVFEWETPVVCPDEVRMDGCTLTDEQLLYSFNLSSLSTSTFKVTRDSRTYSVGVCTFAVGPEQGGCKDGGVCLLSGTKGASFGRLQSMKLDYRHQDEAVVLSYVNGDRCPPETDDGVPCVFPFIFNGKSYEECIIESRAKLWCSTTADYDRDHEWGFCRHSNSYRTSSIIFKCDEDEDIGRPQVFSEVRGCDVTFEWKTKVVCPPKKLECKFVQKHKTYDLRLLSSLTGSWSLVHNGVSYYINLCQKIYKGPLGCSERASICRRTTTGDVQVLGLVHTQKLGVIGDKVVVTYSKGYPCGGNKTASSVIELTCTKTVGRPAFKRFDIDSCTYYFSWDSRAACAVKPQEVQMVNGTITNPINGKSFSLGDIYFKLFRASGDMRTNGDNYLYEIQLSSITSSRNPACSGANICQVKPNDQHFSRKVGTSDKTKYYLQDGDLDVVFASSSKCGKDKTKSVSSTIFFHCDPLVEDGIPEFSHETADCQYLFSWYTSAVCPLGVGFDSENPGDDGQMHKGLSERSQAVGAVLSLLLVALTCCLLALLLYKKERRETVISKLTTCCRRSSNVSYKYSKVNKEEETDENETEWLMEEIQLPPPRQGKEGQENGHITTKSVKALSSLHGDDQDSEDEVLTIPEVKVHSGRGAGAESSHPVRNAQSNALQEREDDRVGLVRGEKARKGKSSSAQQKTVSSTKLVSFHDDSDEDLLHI

Pompe disease = conditions: 40 mg/kg every other week; cited from earlier work
IGF-1 receptor = IGF-1 receptor (Homo sapiens, UniProt P08069); conditions: compared to the IGF-2/CI-MPR; cited from earlier work
[1] = human, in vivo; cited from earlier work
insulin receptor = insulin receptor (Homo sapiens, UniProt P06213); conditions: compared to the IGF-2/CI-MPR; cited from earlier work
[2] = system: serum IGF binding proteins (IGFBPs); assay: Binding to serum IGF binding proteins, inferred from uptake in serum-containing medium; format: cell-based; conditions: inferred from internalization in medium with 10% FBS
Description: To assess the functional effects of IGF2 peptide for the cellular uptake of exogenous lysosomal enzymes, the internalization of IGF2-conjugated rbGAA (vIGF2-rhGAA) was evaluated in L6 rat skeletal muscle myoblasts. Briefly, L6 myoblasts were expanded in T-75 flasks to confluence in DMEM medium containing 10% fetal bovine serum (FBS) at 37 C and a 5% CO2 environment. The cells were harvested via trypsin/EDTA and plated in 6-well tissue culture plates at a cell density of 3×10^5 cells per well and incubated in DMEM/10% […] medium. Two hours prior to the addition of lysosomal enzymes, the spent DMEM 10% FBS medium was replaced with 2.5 ml uptake medium (Ham's F-12/10% FBS/2 mM PIPES, pH 6.7). Unconjugated rhGAA and vIGF2-rhGAA were diluted to 0.5 mg/ml with 50 mM sodium phosphate, pH 6.5/100 mM NaCl/0.05%>Polysorbate-80 and sterilized through a 0.2 μm filter spin device (Costar). Unconjugated rhGAA was added to individual wells at final protein concentrations of 10-200 nM while vIGF2-rhGAA was added at 2-25 nM. To ensure that all wells had the same volume and correct protein concentration, 50 mM sodium phosphate, pH 6.5/100 mM NaCl/0.05% Polysorbate-80 buffer was added so that the total volume of enzyme and buffer was 0.2 ml for each sample.

[3] = Solubility and stability of protein preparations in acidic buffer; format: physicochemical
Description: (§1) The high-mannose type N-glycans on rhGAA is problematic because it is believed that these carbohydrates cause the protein to be rapidly cleared from the circulation via macrophage and splenic mannose receptors. […] Deglycosylation of rhGAA can be performed after the enzyme is modified with S-Hynic and purified (via size exclusion chromatography or dialysis to remove excess crosslinker). This strategy allows for complete deglycosylation of rhGAA over 1-5 days using EndoF or EndoH without affecting enzyme activity. The deglycosylated hydrazide-modified rhGAA is then conjugated to PEG4-benzaldehyde-modified IGF-2 peptides. Alternatively, rhGAA deglycosylation can be performed concurrently during the conjugation of PEG4-benzaldehyde-modified IGF-2 peptide to hydrazide-modified rhGAA using high concentrations of EndoF or EndoH. Deglycosylated, IGF2 peptide-conjugated rhGAA is then purified by gel filtration chromatography or dialysis to remove excess […] IGF-2 peptides and stored in acidic pH buffer (50 mM sodium phosphate, pH 6.2/100 mM NaCl/0.05% Polysorbate-80). The ideal method to remove high-mannose N-glycans from yeast-derived rhGAA would be to co-express EndoH with the lysosomal enzyme for deglycoylation in vivo prior to protein purification of rhGAA. […]

[4] = system: lysosomal enzyme activity (rhGAA, I2S); assay: Enzyme activity of lysosomal enzyme after conjugation or deglycosylation; format: biochemical, human
Description: as §1, with “Polysorbate-80).” for “Polysorbate-80). The ideal method to remove high-mannose N-glycans from yeast-derived rhGAA would be to co-express EndoH with the lysosomal enzyme for deglycoylation in vivo prior to protein purification of rhGAA.”
To assess the functional effects of IGF2 peptide for the cellular uptake of exogenous lysosomal enzymes, the internalization of IGF2-conjugated rbGAA (vIGF2-rhGAA) was evaluated in L6 rat skeletal muscle myoblasts. […]

## O=C[C@@H](O)[C@@H](O)[C@H](O)[C@H](O)COP(=O)(O)O [free M6P, mannose 6-phosphate]
IGF-2/CI-MPR
  Kd: 7000 nM

## Myozyme: recombinant human acid α-glucosidase, rhGAA; Genzyme Corp.
Pompe disease
  clinical effectiveness in Pompe disease: only moderately effective

## WT hIGF-2: wildtype human insulin-like growth factor 2 peptide
IGF-1 receptor
  fold lower affinity for IGF-1 receptor compared to IGF-2/CI-MPR: ~230 fold
IGF-2/CI-MPR
  Kd: 0.03 to 0.2 nM
IGF-2/CI-MPR; relative to mono-M6P N-glycan
  fold higher affinity for IGF-2/CI-MPR than mono-M6P N-glycan: approximately 230,000 fold
[1]
  safety in clinical trials: shown to be safe
Insulin receptor
  fold lower affinity for insulin receptor compared to IGF-2/CI-MPR: ~100 fold

## [Leu27] hIGF-2: human IGF-2 with substitution of leucine for tyrosine at position 27
IGF-2/CI-MPR
  Kd: 0.05 nM and 0.06 nM

## [del(1-4), Arg6, Leu27, Arg65] IGF-2 [variant IGF2 peptide]
[2]
  binding affinity to serum IGF binding proteins (IGFBPs): low binding affinity
[3]; acidic buffers required for maintaining lysosomal enzyme activities
  stability of conjugated peptide in acidic buffers: stable and maintains proper protein structure

## rhGAA: Recombinant human acid α-glucosidase
[4]; after conjugation of variant IGF2 peptide (data not shown)
  effect of chemical conjugation of variant IGF2 peptide on enzyme activity: did not affect enzyme activity
[4]; deglycosylated with EndoF or EndoH, native conditions (data not shown)
  enzyme activity after removal of N-glycans: completely active
[3]; deglycosylated with EndoF or EndoH (data not shown)
  solubility after removal of N-glycans: remain soluble
